Experimental findings from patent US20230123187A1 are described below.

The target of this assay is Apolipoprotein E receptor-2 (Apoer2) (human) (UniProt Q14114). The assay can be described thus: cell-based or functional assay.
Chain of UniProt Q14114 (Q14114 33-963): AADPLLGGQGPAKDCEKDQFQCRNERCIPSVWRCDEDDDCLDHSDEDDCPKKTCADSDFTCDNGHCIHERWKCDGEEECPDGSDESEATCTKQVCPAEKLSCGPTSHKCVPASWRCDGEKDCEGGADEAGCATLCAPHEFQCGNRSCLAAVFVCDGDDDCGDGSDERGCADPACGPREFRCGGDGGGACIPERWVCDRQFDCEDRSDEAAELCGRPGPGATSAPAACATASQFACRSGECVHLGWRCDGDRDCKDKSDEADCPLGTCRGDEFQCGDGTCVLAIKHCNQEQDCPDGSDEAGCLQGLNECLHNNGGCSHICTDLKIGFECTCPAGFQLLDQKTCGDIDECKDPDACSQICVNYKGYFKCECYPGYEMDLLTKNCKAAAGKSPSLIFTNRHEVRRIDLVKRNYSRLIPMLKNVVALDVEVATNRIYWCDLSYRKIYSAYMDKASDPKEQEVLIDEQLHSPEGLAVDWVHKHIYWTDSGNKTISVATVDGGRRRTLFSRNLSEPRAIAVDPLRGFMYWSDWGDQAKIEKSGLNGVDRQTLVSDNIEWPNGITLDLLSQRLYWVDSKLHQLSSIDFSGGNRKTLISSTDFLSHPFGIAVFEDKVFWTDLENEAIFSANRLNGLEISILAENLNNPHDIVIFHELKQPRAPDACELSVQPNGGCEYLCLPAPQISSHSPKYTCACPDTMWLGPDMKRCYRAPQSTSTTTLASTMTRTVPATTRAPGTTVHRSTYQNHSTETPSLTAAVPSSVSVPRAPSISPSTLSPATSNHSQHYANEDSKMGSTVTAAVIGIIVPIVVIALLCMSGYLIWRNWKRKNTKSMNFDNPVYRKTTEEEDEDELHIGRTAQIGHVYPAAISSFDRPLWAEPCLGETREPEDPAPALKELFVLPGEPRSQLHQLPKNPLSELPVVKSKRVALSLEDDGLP

In turn, Recombinant Reelin (ligand) yielded a U937 monocyte adhesion to HAEC monolayers of over 2 fold.
